# ± gives the uncertainty stated by the source.
# B1: library; numbered along this chain (parent)
# chain: MEVVDPQQLGMFTEGELMSVGMDTFIHRIDSTEVIYQPRRKRAKLIGKYLMGDLLGEGSYGKVKEVLDSETLCRRAVKILKKKKLRRIPNGEANVKKEIQLLRRLRHKNVIQLVDVLYNEEKQKMYMVMEYCVCGMQEMLDSVPEKRFPVCQAHGYFCQLIDGLEYLHSQGIVHKDIKPGNLLLTTGGTLKISDLGVAEALHPFAADDTCRTSQGSPAFQPPEIANGLDTFSGFKVDIWSAGVTLYNITTGLYPFEGDNIYKLFENIGKGSYAIPGDCGPPLSDLLKGMLEYEPAKRFSIRQIRQHSWFRKKHPPAEAPVPIPPSPDTKDRWRSMTVVPYLEDLHGADEDEDLFDIEDDIIYTQDFTVPGQVPEEEASHNGQRRGLPKAVCMNGTEAAQLSTKSRAEGRAPNPARKACSASSKIRRLSACKQQ
# Variants of: B1
# Experiment: STK11 functional score (HeLa growth suppression), rescaled enrichment; synonymous median = 1, nonsense median = 0 (normalised score)
# Details: with HeLa; variant type: missense
# Method: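 Deep mutational scan (TileSeq/POPCode codon randomisation) of full-length codon-optimised STK11 cDNA integrated at a Bxb1 landing pad (AAVS1) in HeLa cells. Restoring functional STK11 suppresses HeLa proliferation. Variant frequencies were measured by NGS before and after about two weeks of growth. The error-corrected enrichment log-ratio was rescaled so that synonymous median = 1 and nonsense median = 0, scores above 1 were compressed, and codon-level and three biological replicate scores were combined; error is the bootstrapped standard error. Scale: synonymous median = 1, nonsense median = 0; below 0.5 = damaging.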
row,Variant,STK11 functional score
1,MEVGDPQQLGMFTEGELMSVGMDTFIHRIDSTEVIYQPRRKRAKLIGKYLMGDLLGEGSYGKVKEVLDSETLCRRAVKILKKKKLRRIPNGEANVKKEIQLLRRLRHKNVIQLVDVLYNEEKQKMYMVMEYCVCGMQEMLDSVPEKRFPVCQAHGYFCQLIDGLEYLHSQGIVHKDIKPGNLLLTTGGTLKISDLGVAEALHPFAADDTCRTSQGSPAFQPPEIANGLDTFSGFKVDIWSAGVTLYNITTGLYPFEGDNIYKLFENIGKGSYAIPGDCGPPLSDLLKGMLEYEPAKRFSIRQIRQHSWFRKKHPPAEAPVPIPPSPDTKDRWRSMTVVPYLEDLHGADEDEDLFDIEDDIIYTQDFTVPGQVPEEEASHNGQRRGLPKAVCMNGTEAAQLSTKSRAEGRAPNPARKACSASSKIRRLSACKQQ [V4G],1.03 ± 0.13
2,MEVSDPQQLGMFTEGELMSVGMDTFIHRIDSTEVIYQPRRKRAKLIGKYLMGDLLGEGSYGKVKEVLDSETLCRRAVKILKKKKLRRIPNGEANVKKEIQLLRRLRHKNVIQLVDVLYNEEKQKMYMVMEYCVCGMQEMLDSVPEKRFPVCQAHGYFCQLIDGLEYLHSQGIVHKDIKPGNLLLTTGGTLKISDLGVAEALHPFAADDTCRTSQGSPAFQPPEIANGLDTFSGFKVDIWSAGVTLYNITTGLYPFEGDNIYKLFENIGKGSYAIPGDCGPPLSDLLKGMLEYEPAKRFSIRQIRQHSWFRKKHPPAEAPVPIPPSPDTKDRWRSMTVVPYLEDLHGADEDEDLFDIEDDIIYTQDFTVPGQVPEEEASHNGQRRGLPKAVCMNGTEAAQLSTKSRAEGRAPNPARKACSASSKIRRLSACKQQ [V4S],0.996 ± 0.14
3,MEVLDPQQLGMFTEGELMSVGMDTFIHRIDSTEVIYQPRRKRAKLIGKYLMGDLLGEGSYGKVKEVLDSETLCRRAVKILKKKKLRRIPNGEANVKKEIQLLRRLRHKNVIQLVDVLYNEEKQKMYMVMEYCVCGMQEMLDSVPEKRFPVCQAHGYFCQLIDGLEYLHSQGIVHKDIKPGNLLLTTGGTLKISDLGVAEALHPFAADDTCRTSQGSPAFQPPEIANGLDTFSGFKVDIWSAGVTLYNITTGLYPFEGDNIYKLFENIGKGSYAIPGDCGPPLSDLLKGMLEYEPAKRFSIRQIRQHSWFRKKHPPAEAPVPIPPSPDTKDRWRSMTVVPYLEDLHGADEDEDLFDIEDDIIYTQDFTVPGQVPEEEASHNGQRRGLPKAVCMNGTEAAQLSTKSRAEGRAPNPARKACSASSKIRRLSACKQQ [V4L],0.909 ± 0.33
4,MEVTDPQQLGMFTEGELMSVGMDTFIHRIDSTEVIYQPRRKRAKLIGKYLMGDLLGEGSYGKVKEVLDSETLCRRAVKILKKKKLRRIPNGEANVKKEIQLLRRLRHKNVIQLVDVLYNEEKQKMYMVMEYCVCGMQEMLDSVPEKRFPVCQAHGYFCQLIDGLEYLHSQGIVHKDIKPGNLLLTTGGTLKISDLGVAEALHPFAADDTCRTSQGSPAFQPPEIANGLDTFSGFKVDIWSAGVTLYNITTGLYPFEGDNIYKLFENIGKGSYAIPGDCGPPLSDLLKGMLEYEPAKRFSIRQIRQHSWFRKKHPPAEAPVPIPPSPDTKDRWRSMTVVPYLEDLHGADEDEDLFDIEDDIIYTQDFTVPGQVPEEEASHNGQRRGLPKAVCMNGTEAAQLSTKSRAEGRAPNPARKACSASSKIRRLSACKQQ [V4T],1.06 ± 0.15
5,MEVHDPQQLGMFTEGELMSVGMDTFIHRIDSTEVIYQPRRKRAKLIGKYLMGDLLGEGSYGKVKEVLDSETLCRRAVKILKKKKLRRIPNGEANVKKEIQLLRRLRHKNVIQLVDVLYNEEKQKMYMVMEYCVCGMQEMLDSVPEKRFPVCQAHGYFCQLIDGLEYLHSQGIVHKDIKPGNLLLTTGGTLKISDLGVAEALHPFAADDTCRTSQGSPAFQPPEIANGLDTFSGFKVDIWSAGVTLYNITTGLYPFEGDNIYKLFENIGKGSYAIPGDCGPPLSDLLKGMLEYEPAKRFSIRQIRQHSWFRKKHPPAEAPVPIPPSPDTKDRWRSMTVVPYLEDLHGADEDEDLFDIEDDIIYTQDFTVPGQVPEEEASHNGQRRGLPKAVCMNGTEAAQLSTKSRAEGRAPNPARKACSASSKIRRLSACKQQ [V4H],1.65 ± 0.25
6,MEVWDPQQLGMFTEGELMSVGMDTFIHRIDSTEVIYQPRRKRAKLIGKYLMGDLLGEGSYGKVKEVLDSETLCRRAVKILKKKKLRRIPNGEANVKKEIQLLRRLRHKNVIQLVDVLYNEEKQKMYMVMEYCVCGMQEMLDSVPEKRFPVCQAHGYFCQLIDGLEYLHSQGIVHKDIKPGNLLLTTGGTLKISDLGVAEALHPFAADDTCRTSQGSPAFQPPEIANGLDTFSGFKVDIWSAGVTLYNITTGLYPFEGDNIYKLFENIGKGSYAIPGDCGPPLSDLLKGMLEYEPAKRFSIRQIRQHSWFRKKHPPAEAPVPIPPSPDTKDRWRSMTVVPYLEDLHGADEDEDLFDIEDDIIYTQDFTVPGQVPEEEASHNGQRRGLPKAVCMNGTEAAQLSTKSRAEGRAPNPARKACSASSKIRRLSACKQQ [V4W],1.22 ± 0.089
7,MEVFDPQQLGMFTEGELMSVGMDTFIHRIDSTEVIYQPRRKRAKLIGKYLMGDLLGEGSYGKVKEVLDSETLCRRAVKILKKKKLRRIPNGEANVKKEIQLLRRLRHKNVIQLVDVLYNEEKQKMYMVMEYCVCGMQEMLDSVPEKRFPVCQAHGYFCQLIDGLEYLHSQGIVHKDIKPGNLLLTTGGTLKISDLGVAEALHPFAADDTCRTSQGSPAFQPPEIANGLDTFSGFKVDIWSAGVTLYNITTGLYPFEGDNIYKLFENIGKGSYAIPGDCGPPLSDLLKGMLEYEPAKRFSIRQIRQHSWFRKKHPPAEAPVPIPPSPDTKDRWRSMTVVPYLEDLHGADEDEDLFDIEDDIIYTQDFTVPGQVPEEEASHNGQRRGLPKAVCMNGTEAAQLSTKSRAEGRAPNPARKACSASSKIRRLSACKQQ [V4F],0.964 ± 0.46
8,MEVIDPQQLGMFTEGELMSVGMDTFIHRIDSTEVIYQPRRKRAKLIGKYLMGDLLGEGSYGKVKEVLDSETLCRRAVKILKKKKLRRIPNGEANVKKEIQLLRRLRHKNVIQLVDVLYNEEKQKMYMVMEYCVCGMQEMLDSVPEKRFPVCQAHGYFCQLIDGLEYLHSQGIVHKDIKPGNLLLTTGGTLKISDLGVAEALHPFAADDTCRTSQGSPAFQPPEIANGLDTFSGFKVDIWSAGVTLYNITTGLYPFEGDNIYKLFENIGKGSYAIPGDCGPPLSDLLKGMLEYEPAKRFSIRQIRQHSWFRKKHPPAEAPVPIPPSPDTKDRWRSMTVVPYLEDLHGADEDEDLFDIEDDIIYTQDFTVPGQVPEEEASHNGQRRGLPKAVCMNGTEAAQLSTKSRAEGRAPNPARKACSASSKIRRLSACKQQ [V4I],1.43 ± 0.16
9,MEVPDPQQLGMFTEGELMSVGMDTFIHRIDSTEVIYQPRRKRAKLIGKYLMGDLLGEGSYGKVKEVLDSETLCRRAVKILKKKKLRRIPNGEANVKKEIQLLRRLRHKNVIQLVDVLYNEEKQKMYMVMEYCVCGMQEMLDSVPEKRFPVCQAHGYFCQLIDGLEYLHSQGIVHKDIKPGNLLLTTGGTLKISDLGVAEALHPFAADDTCRTSQGSPAFQPPEIANGLDTFSGFKVDIWSAGVTLYNITTGLYPFEGDNIYKLFENIGKGSYAIPGDCGPPLSDLLKGMLEYEPAKRFSIRQIRQHSWFRKKHPPAEAPVPIPPSPDTKDRWRSMTVVPYLEDLHGADEDEDLFDIEDDIIYTQDFTVPGQVPEEEASHNGQRRGLPKAVCMNGTEAAQLSTKSRAEGRAPNPARKACSASSKIRRLSACKQQ [V4P],1.03 ± 0.13
10,MEVRDPQQLGMFTEGELMSVGMDTFIHRIDSTEVIYQPRRKRAKLIGKYLMGDLLGEGSYGKVKEVLDSETLCRRAVKILKKKKLRRIPNGEANVKKEIQLLRRLRHKNVIQLVDVLYNEEKQKMYMVMEYCVCGMQEMLDSVPEKRFPVCQAHGYFCQLIDGLEYLHSQGIVHKDIKPGNLLLTTGGTLKISDLGVAEALHPFAADDTCRTSQGSPAFQPPEIANGLDTFSGFKVDIWSAGVTLYNITTGLYPFEGDNIYKLFENIGKGSYAIPGDCGPPLSDLLKGMLEYEPAKRFSIRQIRQHSWFRKKHPPAEAPVPIPPSPDTKDRWRSMTVVPYLEDLHGADEDEDLFDIEDDIIYTQDFTVPGQVPEEEASHNGQRRGLPKAVCMNGTEAAQLSTKSRAEGRAPNPARKACSASSKIRRLSACKQQ [V4R],1.32 ± 0.2
11,MEVEDPQQLGMFTEGELMSVGMDTFIHRIDSTEVIYQPRRKRAKLIGKYLMGDLLGEGSYGKVKEVLDSETLCRRAVKILKKKKLRRIPNGEANVKKEIQLLRRLRHKNVIQLVDVLYNEEKQKMYMVMEYCVCGMQEMLDSVPEKRFPVCQAHGYFCQLIDGLEYLHSQGIVHKDIKPGNLLLTTGGTLKISDLGVAEALHPFAADDTCRTSQGSPAFQPPEIANGLDTFSGFKVDIWSAGVTLYNITTGLYPFEGDNIYKLFENIGKGSYAIPGDCGPPLSDLLKGMLEYEPAKRFSIRQIRQHSWFRKKHPPAEAPVPIPPSPDTKDRWRSMTVVPYLEDLHGADEDEDLFDIEDDIIYTQDFTVPGQVPEEEASHNGQRRGLPKAVCMNGTEAAQLSTKSRAEGRAPNPARKACSASSKIRRLSACKQQ [V4E],1.09 ± 0.6
12,MEVVHPQQLGMFTEGELMSVGMDTFIHRIDSTEVIYQPRRKRAKLIGKYLMGDLLGEGSYGKVKEVLDSETLCRRAVKILKKKKLRRIPNGEANVKKEIQLLRRLRHKNVIQLVDVLYNEEKQKMYMVMEYCVCGMQEMLDSVPEKRFPVCQAHGYFCQLIDGLEYLHSQGIVHKDIKPGNLLLTTGGTLKISDLGVAEALHPFAADDTCRTSQGSPAFQPPEIANGLDTFSGFKVDIWSAGVTLYNITTGLYPFEGDNIYKLFENIGKGSYAIPGDCGPPLSDLLKGMLEYEPAKRFSIRQIRQHSWFRKKHPPAEAPVPIPPSPDTKDRWRSMTVVPYLEDLHGADEDEDLFDIEDDIIYTQDFTVPGQVPEEEASHNGQRRGLPKAVCMNGTEAAQLSTKSRAEGRAPNPARKACSASSKIRRLSACKQQ [D5H],1.13 ± 0.53
13,MEVVNPQQLGMFTEGELMSVGMDTFIHRIDSTEVIYQPRRKRAKLIGKYLMGDLLGEGSYGKVKEVLDSETLCRRAVKILKKKKLRRIPNGEANVKKEIQLLRRLRHKNVIQLVDVLYNEEKQKMYMVMEYCVCGMQEMLDSVPEKRFPVCQAHGYFCQLIDGLEYLHSQGIVHKDIKPGNLLLTTGGTLKISDLGVAEALHPFAADDTCRTSQGSPAFQPPEIANGLDTFSGFKVDIWSAGVTLYNITTGLYPFEGDNIYKLFENIGKGSYAIPGDCGPPLSDLLKGMLEYEPAKRFSIRQIRQHSWFRKKHPPAEAPVPIPPSPDTKDRWRSMTVVPYLEDLHGADEDEDLFDIEDDIIYTQDFTVPGQVPEEEASHNGQRRGLPKAVCMNGTEAAQLSTKSRAEGRAPNPARKACSASSKIRRLSACKQQ [D5N],1.24 ± 0.67
14,MEVVDAQQLGMFTEGELMSVGMDTFIHRIDSTEVIYQPRRKRAKLIGKYLMGDLLGEGSYGKVKEVLDSETLCRRAVKILKKKKLRRIPNGEANVKKEIQLLRRLRHKNVIQLVDVLYNEEKQKMYMVMEYCVCGMQEMLDSVPEKRFPVCQAHGYFCQLIDGLEYLHSQGIVHKDIKPGNLLLTTGGTLKISDLGVAEALHPFAADDTCRTSQGSPAFQPPEIANGLDTFSGFKVDIWSAGVTLYNITTGLYPFEGDNIYKLFENIGKGSYAIPGDCGPPLSDLLKGMLEYEPAKRFSIRQIRQHSWFRKKHPPAEAPVPIPPSPDTKDRWRSMTVVPYLEDLHGADEDEDLFDIEDDIIYTQDFTVPGQVPEEEASHNGQRRGLPKAVCMNGTEAAQLSTKSRAEGRAPNPARKACSASSKIRRLSACKQQ [P6A],0.942 ± 0.1

# — the supplement of paper PMC12338614
